Assay results: paper PMC9482650, “Quantitative fragmentomics allow affinity mapping of interactomes” (Nature Communications, 2022)
Values belong to the binder of their own block, whether it stands above or below them.

Legend:
Assay in all cases: holdup assay
Set-up in all cases: key: below the threshold = too weak to quantify, mostly under pKd 3.1 to 4
ARHGAP21, Q5T5U3 = molecular target: T1, ARHGAP21, Q5T5U3
T1 sequence (Q5T5U3 45-169, limits assumed, looked up): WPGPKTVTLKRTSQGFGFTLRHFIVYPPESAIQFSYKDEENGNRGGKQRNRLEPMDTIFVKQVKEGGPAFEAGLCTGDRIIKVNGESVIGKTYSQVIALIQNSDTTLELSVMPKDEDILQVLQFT

ARHGEF11, O15085 = molecular target: T2, ARHGEF11, O15085
T2 sequence (O15085 42-136, limits assumed, looked up): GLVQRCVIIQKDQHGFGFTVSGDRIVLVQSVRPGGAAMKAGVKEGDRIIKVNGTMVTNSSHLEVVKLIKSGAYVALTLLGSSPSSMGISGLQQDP

ARHGEF12, Q9NZN5-2 = molecular target: ARHGEF12, Q9NZN5-2
CARD11, Q9BXL7 = molecular target: T3, CARD11, Q9BXL7
T3 sequence (Q9BXL7 662-765, limits assumed, looked up): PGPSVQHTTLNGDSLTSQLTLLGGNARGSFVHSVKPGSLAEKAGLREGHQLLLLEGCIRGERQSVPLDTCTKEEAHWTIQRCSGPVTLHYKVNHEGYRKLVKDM

DVL3, Q92997 = molecular target: T4, DVL3, Q92997
T4 sequence (Q92997 244-331, limits assumed, looked up): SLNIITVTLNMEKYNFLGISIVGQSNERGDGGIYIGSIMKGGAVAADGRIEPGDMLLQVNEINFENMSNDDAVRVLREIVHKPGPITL

GIPC2, Q8TF65 = molecular target: GIPC2, Q8TF65
GRIP2_5, Q9C0E4 = molecular target: GRIP2_5, Q9C0E4
HTRA2, O43464 = molecular target: HTRA2, O43464
IL16_4, Q14005 = molecular target: IL16_4, Q14005
Inadl_2, Q8NI35 = molecular target: Inadl_2, Q8NI35
Inadl_3, Q8NI35 = molecular target: Inadl_3, Q8NI35
Inadl_6, Q8NI35 = molecular target: Inadl_6, Q8NI35
LIN7C, Q9NUP9 = molecular target: T5, LIN7C, Q9NUP9
T5 sequence (Q9NUP9 88-185, limits assumed, looked up): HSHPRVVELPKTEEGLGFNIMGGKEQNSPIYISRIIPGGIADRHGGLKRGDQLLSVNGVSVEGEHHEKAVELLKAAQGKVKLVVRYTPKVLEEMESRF

MAGI1_2, Q96QZ7 = molecular target: MAGI1_2, Q96QZ7
MPDZ_10, O75970 = molecular target: T6, MPDZ_10, O75970
T6 sequence (O75970 1624-1722, limits assumed, looked up): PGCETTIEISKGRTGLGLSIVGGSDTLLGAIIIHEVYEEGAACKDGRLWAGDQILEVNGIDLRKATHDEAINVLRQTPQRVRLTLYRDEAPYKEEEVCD

MPDZ_5, O75970 = molecular target: T7, MPDZ_5, O75970
T7 sequence (O75970 695-796, limits assumed, looked up): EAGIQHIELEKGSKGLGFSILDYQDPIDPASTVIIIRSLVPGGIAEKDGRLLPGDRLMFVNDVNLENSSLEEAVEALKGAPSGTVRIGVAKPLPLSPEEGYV

MPP6, Q9NZW5 = molecular target: T8, MPP6, Q9NZW5
T8 sequence (Q9NZW5 125-219, limits assumed, looked up): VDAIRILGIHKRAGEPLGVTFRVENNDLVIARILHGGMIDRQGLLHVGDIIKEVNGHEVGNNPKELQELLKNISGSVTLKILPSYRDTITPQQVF

NHERF4_4, Q86UT5 = molecular target: NHERF4_4, Q86UT5
PDLIM1, O00151 = molecular target: PDLIM1, O00151
PTPN13_1, Q12923 = molecular target: T9, PTPN13_1, Q12923
T9 sequence (Q12923 1088-1188, limits assumed, looked up): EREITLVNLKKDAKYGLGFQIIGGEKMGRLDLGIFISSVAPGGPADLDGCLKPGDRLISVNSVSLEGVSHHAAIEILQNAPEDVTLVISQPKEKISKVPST

PTPN3, P26045 = molecular target: PTPN3, P26045
RADIL, Q96JH8 = molecular target: T10, RADIL, Q96JH8
T10 sequence (Q96JH8 971-1071, limits assumed, looked up): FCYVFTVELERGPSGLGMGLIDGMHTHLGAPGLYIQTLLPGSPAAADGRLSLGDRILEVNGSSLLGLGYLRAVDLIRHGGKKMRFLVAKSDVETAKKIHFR

RAPGEF6, Q8TEU7 = molecular target: T11, RAPGEF6, Q8TEU7
T11 sequence (Q8TEU7 525-625, limits assumed, looked up): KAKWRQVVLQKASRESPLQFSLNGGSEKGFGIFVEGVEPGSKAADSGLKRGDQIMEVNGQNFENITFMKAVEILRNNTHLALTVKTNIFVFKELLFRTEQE

SIPA1L2, Q9P2F8 = molecular target: T12, SIPA1L2, Q9P2F8
T12 sequence (Q9P2F8 945-1036, limits assumed, looked up): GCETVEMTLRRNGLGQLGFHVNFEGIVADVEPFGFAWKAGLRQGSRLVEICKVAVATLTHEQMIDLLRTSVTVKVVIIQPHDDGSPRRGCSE

TJP1_3, Q07157 = molecular target: TJP1_3, Q07157
[1] = plain residues with an end cap or a label only (N-terminal biotin on a linker: ado-ado)
[2] = plain residues with an end cap or a label only (N-terminal biotin on a linker: ahx)
[3] = plain residues with an end cap or a label only (N-terminal biotin on a linker: ttds)

Chain of Inadl_2, Q8NI35 (Q8NI35 238-335): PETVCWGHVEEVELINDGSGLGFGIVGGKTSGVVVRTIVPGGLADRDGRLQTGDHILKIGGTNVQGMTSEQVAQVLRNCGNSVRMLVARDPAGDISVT
Chain of Inadl_3, Q8NI35 (Q8NI35 359-469): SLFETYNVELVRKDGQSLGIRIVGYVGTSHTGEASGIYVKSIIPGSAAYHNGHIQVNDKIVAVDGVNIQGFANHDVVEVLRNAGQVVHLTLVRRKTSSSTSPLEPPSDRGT
Chain of IL16_4, Q14005 (Q14005 1229-1329): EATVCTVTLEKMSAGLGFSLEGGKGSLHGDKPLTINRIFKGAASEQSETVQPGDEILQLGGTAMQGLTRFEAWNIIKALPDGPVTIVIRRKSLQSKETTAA
Chain of PDLIM1, O00151 (O00151 1-87): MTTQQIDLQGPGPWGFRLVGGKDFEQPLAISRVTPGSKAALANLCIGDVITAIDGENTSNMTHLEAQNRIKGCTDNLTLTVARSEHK
Chain of Inadl_6, Q8NI35 (Q8NI35 1058-1167): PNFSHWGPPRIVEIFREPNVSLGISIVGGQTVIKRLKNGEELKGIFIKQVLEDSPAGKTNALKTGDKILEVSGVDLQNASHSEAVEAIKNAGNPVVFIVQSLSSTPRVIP
Chain of GIPC2, Q8TF65 (Q8TF65 112-203): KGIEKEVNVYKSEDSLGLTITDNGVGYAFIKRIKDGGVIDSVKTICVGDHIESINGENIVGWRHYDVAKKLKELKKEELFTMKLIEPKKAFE
Chain of MAGI1_2, Q96QZ7 (Q96QZ7 456-580): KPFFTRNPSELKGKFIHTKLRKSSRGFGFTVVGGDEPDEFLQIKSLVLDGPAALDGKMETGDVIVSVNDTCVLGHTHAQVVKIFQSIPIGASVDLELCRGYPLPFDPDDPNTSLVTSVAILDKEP
Chain of ARHGEF12, Q9NZN5-2 (Q9NZN5 other isoform, or with tags, fused parts or gaps): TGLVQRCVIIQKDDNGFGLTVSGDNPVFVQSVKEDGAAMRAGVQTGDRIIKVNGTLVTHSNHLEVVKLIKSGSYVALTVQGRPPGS
Chain of HTRA2, O43464 (O43464 355-458): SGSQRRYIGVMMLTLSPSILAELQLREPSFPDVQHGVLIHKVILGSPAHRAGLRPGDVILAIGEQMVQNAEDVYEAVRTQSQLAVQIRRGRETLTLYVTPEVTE
Chain of NHERF4_4, Q86UT5 (Q86UT5 464-550): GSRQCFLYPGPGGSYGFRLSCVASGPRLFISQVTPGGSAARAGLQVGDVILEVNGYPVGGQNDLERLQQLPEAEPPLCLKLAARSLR
Chain of GRIP2_5, Q9C0E4 (Q9C0E4 544-642): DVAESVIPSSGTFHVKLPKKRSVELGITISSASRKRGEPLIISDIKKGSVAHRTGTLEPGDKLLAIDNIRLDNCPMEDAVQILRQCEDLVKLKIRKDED
Chain of TJP1_3, Q07157 (Q07157 416-512): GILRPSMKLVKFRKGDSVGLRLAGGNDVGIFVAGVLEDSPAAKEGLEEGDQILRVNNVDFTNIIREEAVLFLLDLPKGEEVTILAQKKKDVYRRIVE
Chain of PTPN3, P26045 (P26045 505-587): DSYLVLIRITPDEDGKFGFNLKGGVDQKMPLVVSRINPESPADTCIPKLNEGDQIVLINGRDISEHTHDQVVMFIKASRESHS

- pKd (ARHGAP21, Q5T5U3; [1]): 4.06
- pKd (ARHGEF11, O15085; [1]): below the threshold
- pKd (ARHGEF12, Q9NZN5-2; [1]): 3.92
- pKd (CARD11, Q9BXL7; [1]): below the threshold
- pKd (DVL3, Q92997; [1]): below the threshold
- pKd (GIPC2, Q8TF65; [1]): below the threshold
- pKd (GRIP2_5, Q9C0E4; [1]): below the threshold
- pKd (HTRA2, O43464; [1]): below the threshold
- pKd (IL16_4, Q14005; [1]): below the threshold
- pKd (Inadl_2, Q8NI35; [1]): below the threshold
- pKd (Inadl_3, Q8NI35; [1]): below the threshold
- pKd (Inadl_6, Q8NI35; [1]): below the threshold
- pKd (LIN7C, Q9NUP9; [1]): 3.48
- pKd (MAGI1_2, Q96QZ7; [1]): below the threshold
- pKd (MPDZ_10, O75970; [1]): below the threshold
- pKd (MPDZ_5, O75970; [1]): below the threshold
- pKd (MPP6, Q9NZW5; [1]): 3.5
- pKd (NHERF4_4, Q86UT5; [1]): 3.76
- pKd (PDLIM1, O00151; [1]): below the threshold
- pKd (PTPN13_1, Q12923; [1]): 3.47
- pKd (PTPN3, P26045; [1]): 4.19
- pKd (RADIL, Q96JH8; [1]): below the threshold
- pKd (RAPGEF6, Q8TEU7; [1]): below the threshold
- pKd (SIPA1L2, Q9P2F8; [1]): below the threshold
- pKd (TJP1_3, Q07157; [1]): below the threshold
B1: ACOT6, Q3I5F7 (peptide)
chain: GKKSVKHSKI

- pKd (ARHGAP21, Q5T5U3; [2]): below the threshold
- pKd (ARHGEF11, O15085; [2]): 3.49
- pKd (ARHGEF12, Q9NZN5-2; [2]): 4.26
- pKd (CARD11, Q9BXL7; [2]): below the threshold
- pKd (DVL3, Q92997; [2]): below the threshold
- pKd (GIPC2, Q8TF65; [2]): below the threshold
- pKd (GRIP2_5, Q9C0E4; [2]): below the threshold
- pKd (HTRA2, O43464; [2]): below the threshold
- pKd (IL16_4, Q14005; [2]): below the threshold
- pKd (Inadl_2, Q8NI35; [2]): below the threshold
- pKd (Inadl_3, Q8NI35; [2]): below the threshold
- pKd (Inadl_6, Q8NI35; [2]): below the threshold
- pKd (LIN7C, Q9NUP9; [2]): below the threshold
- pKd (MAGI1_2, Q96QZ7; [2]): below the threshold
- pKd (MPDZ_10, O75970; [2]): 3.77
- pKd (MPDZ_5, O75970; [2]): below the threshold
- pKd (MPP6, Q9NZW5; [2]): below the threshold
- pKd (NHERF4_4, Q86UT5; [2]): below the threshold
- pKd (PDLIM1, O00151; [2]): 3.61
- pKd (PTPN13_1, Q12923; [2]): below the threshold
- pKd (PTPN3, P26045; [2]): 3.99
- pKd (RADIL, Q96JH8; [2]): below the threshold
- pKd (RAPGEF6, Q8TEU7; [2]): below the threshold
- pKd (SIPA1L2, Q9P2F8; [2]): below the threshold
- pKd (TJP1_3, Q07157; [2]): below the threshold
B2: SHROOM3, Q8TF72 (peptide)
chain: GIFPTLTSPL

- pKd (ARHGAP21, Q5T5U3; [3]): 4.88
- pKd (ARHGEF11, O15085; [3]): 3.77
- pKd (ARHGEF12, Q9NZN5-2; [3]): 4.2
- pKd (CARD11, Q9BXL7; [3]): below the threshold
- pKd (DVL3, Q92997; [3]): below the threshold
- pKd (GIPC2, Q8TF65; [3]): 3.8
- pKd (GRIP2_5, Q9C0E4; [3]): below the threshold
- pKd (HTRA2, O43464; [3]): below the threshold
- pKd (IL16_4, Q14005; [3]): below the threshold
- pKd (Inadl_2, Q8NI35; [3]): below the threshold
- pKd (Inadl_3, Q8NI35; [3]): 3.7
- pKd (Inadl_6, Q8NI35; [3]): 4.13
- pKd (LIN7C, Q9NUP9; [3]): below the threshold
- pKd (MAGI1_2, Q96QZ7; [3]): below the threshold
- pKd (MPDZ_10, O75970; [3]): below the threshold
- pKd (MPDZ_5, O75970; [3]): below the threshold
- pKd (MPP6, Q9NZW5; [3]): below the threshold
- pKd (NHERF4_4, Q86UT5; [3]): 4.04
- pKd (PDLIM1, O00151; [3]): 4.16
- pKd (PTPN13_1, Q12923; [3]): below the threshold
- pKd (PTPN3, P26045; [3]): 4.33
- pKd (RADIL, Q96JH8; [3]): below the threshold
- pKd (RAPGEF6, Q8TEU7; [3]): below the threshold
- pKd (SIPA1L2, Q9P2F8; [3]): below the threshold
- pKd (TJP1_3, Q07157; [3]): below the threshold
B3: CTNNB1, P35222 (peptide)
chain: NQLAWFDTDL
